Experimental data from patent publication US20140046032A1 (Sanofi, published 2014).
Positions count from the first letter of the chain named. In names and notes the source's numbering stands. Values belong to the molecule of their own block, whether it stands above or below them.

Assays:
[1] = biological target: lectin Maackia amurensis (MAA) (Maackia amurensis); test: enzyme-linked lectin assay (ELLA) with Maackia amurensis lectin (MAA, α-2,3 sialic acid); signal against µg of mAb, linear axis
Chain of lectin Maackia amurensis (MAA) (Maackia amurensis) (P0DKL3 30-278): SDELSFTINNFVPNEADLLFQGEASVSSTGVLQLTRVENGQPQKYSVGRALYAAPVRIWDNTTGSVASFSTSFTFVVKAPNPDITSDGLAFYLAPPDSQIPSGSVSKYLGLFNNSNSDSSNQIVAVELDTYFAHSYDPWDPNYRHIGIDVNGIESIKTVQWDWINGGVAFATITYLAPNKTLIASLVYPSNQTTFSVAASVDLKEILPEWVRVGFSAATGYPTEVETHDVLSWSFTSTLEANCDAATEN

recombinant murine FcγRI = biological target: T1, recombinant murine FcγRI (murine, UniProt P26151 25-297); test: SPR, Biacore 3000
T1 construct: Bought
T1 sequence (looked up): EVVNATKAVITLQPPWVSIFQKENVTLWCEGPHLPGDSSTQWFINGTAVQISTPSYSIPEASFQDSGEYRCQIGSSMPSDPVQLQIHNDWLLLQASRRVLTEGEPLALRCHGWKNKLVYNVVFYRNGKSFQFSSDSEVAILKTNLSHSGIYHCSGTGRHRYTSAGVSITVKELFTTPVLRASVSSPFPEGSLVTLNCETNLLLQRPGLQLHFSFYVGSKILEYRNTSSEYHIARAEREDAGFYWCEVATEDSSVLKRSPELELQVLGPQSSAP

[2] = biological target: T2, recombinant murine FcγRIV (murine, UniProt A0A0B4J1G0 21-203); test: SPR, Biacore 3000
T2 construct: Bought
T2 sequence: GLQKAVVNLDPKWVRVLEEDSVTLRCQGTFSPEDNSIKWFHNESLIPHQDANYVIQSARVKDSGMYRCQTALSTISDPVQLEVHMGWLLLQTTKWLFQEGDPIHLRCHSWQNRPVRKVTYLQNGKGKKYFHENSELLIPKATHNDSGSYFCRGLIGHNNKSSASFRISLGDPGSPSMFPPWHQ

[3] = biological target: T3, recombinant murine FcγRIIb (murine, UniProt P08101 30-207, limits assumed); test: SPR, Biacore 3000
T3 construct: Bought
T3 sequence (looked up): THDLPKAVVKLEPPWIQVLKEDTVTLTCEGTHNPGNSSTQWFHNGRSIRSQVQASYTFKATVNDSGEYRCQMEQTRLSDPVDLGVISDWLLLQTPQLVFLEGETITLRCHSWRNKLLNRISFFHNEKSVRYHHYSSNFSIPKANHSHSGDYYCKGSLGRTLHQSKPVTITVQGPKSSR

[4] = biological target: T4, recombinant murine FcγRIII (murine, UniProt P08508 31-215); test: SPR, Biacore 3000
T4 construct: Bought
T4 sequence (looked up): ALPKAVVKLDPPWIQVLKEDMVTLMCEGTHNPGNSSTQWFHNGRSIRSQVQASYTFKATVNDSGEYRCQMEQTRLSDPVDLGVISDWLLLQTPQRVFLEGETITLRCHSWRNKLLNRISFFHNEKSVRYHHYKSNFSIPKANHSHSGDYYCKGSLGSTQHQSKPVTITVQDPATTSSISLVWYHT

B1: α-2,6 sialylated antiAbeta-13C3_D257A mAb (co-expressed with SIAT1 and B4GT1) (antibody, mouse IgG1, kappa)
heavy: QVQLQQSGPELVRPGVSVKISCKGSGYTFTDYAMHWVKQSHAKSLEWIGVISTKYGKTNYNQKFKGKATMTVDKSSSTAYMELARLTSEDSAIYYCARGDDGYSWGQGTSVTVSSAKTTPPSVYPLAPGSAAQTNSMVTLGCLVKGYFPEPVTVTWNSGSLSSGVHTFPAVLQSDLYTLSSSVTVPSSTWPSETVTCNVAHPASSTKVDKKIVPRDCGCKPCICTVPEVSSVFIFPPKPKDVLTITLTPKVTCVVVAISKDDPEVQFSWFVDDVEVHTAQTQPREEQFNSTFRSVSELPIMHQDWLNGKEFKCRVNSAAFPAPIEKTISKTKGRPKAPQVYTIPPPKEQMAKDKVSLTCMITDFFPEDITVEWQWNGQPAENYKNTQPIMDTDGSYFVYSKLNVQKSNWEAGNTFTCSVLHEGLHNHHTEKSLSHSPG
light: DVVMTQTPLSLPVSLGDQASISCRSGQSLVHSNGNTYLHWYLQKPGQSPKLLIYTVSNRFSGVPDRFSGSGSGSDFTLKISRVEAEDLGVYFCSQNTFVPWTFGGGTKLEIKRADAAPTVSIFPPSSEQLTSGGASVVCFLNNFYPKDINVKWKIDGSERQNGVLNSWTDQDSKDSTYSMSSTLTLTKDEYERHNSYTCEATHKTSTSPIVKSFNRNEC
modifications: Fc N-glycan essentially α-2,6-sialylated, G2F/G2F + 4 NeuNAc per mAb (very high sialic acid content)
notes: Small-scale batch LP10094, large-scale batch LP10104 and a CHO-produced batch are treated as this one molecule; also called antiAbeta_13C3_D257A batch LP10104; batch LP10094
binding result (recombinant murine FcγRI): no binding
binding result [2]: no binding

B2: antiAbeta_13C3_D257A mAb produced without co-expression of SIAT1 and B4GT1 (batch LP10116, low sialic acid content) (antibody, mouse IgG1, kappa)
heavy: B1 heavy
light: B1 light
modifications: Fc N-glycan G0F/G0F, low sialic acid content
notes: also called low sialylated antiAbeta-13C3_D257A
binding result (recombinant murine FcγRI): no binding
binding result [2]: no binding

Now from value to molecule:

EC50 (read off the curve) [1]: 0.2 µg
Molecule: fetuin

binding result (recombinant murine FcγRI): no binding
Kd [3]: 354 nM
Kd [4]: 471 nM
binding result [2]: no binding
B3: antiAbeta_13C3 mAb (murine, batch LP09009, low sialic acid content) (antibody, mouse IgG1, kappa)
heavy: B1 heavy with A257D
light: B1 light
modifications: Fc N-glycan with low sialic acid content
notes: Murine IgG1 heavy chain, murine Ckappa light chain; also called antiAbeta-13C13 mAb; original antiAbeta-13C3
